Experimental data reported in patent US20050084493A1 (Amgen, published 2005).
Blank lines part the entries; values can stand above or below the molecule they belong to.

Tests used:
[1] = biological target: IL-1 receptor type I (IL-1R1) on SW982 synoviocytes / HUVEC (human) (UniProt P14778); assay: cell-based or functional assay
[2] = biological target: T1, IL-1β (Homo sapiens (Human), UniProt P01584 117-269); assay: ECL (Origen) competition of complex formation: antibody titrated against biotinylated sIL-1 receptor (1 nM), IL-1β (1 nM), ruthenium-tagged IL-1RacP (5 nM)
T1 construct: also called IL-1 beta; IL-1b
Procedure: The resulting complexes were captured using magnetic streptavidin-coated beads and an Origen® Analyzer (IGEN Inc.) measured an ECL signal proportional to the ruthenium tag captured in the complex to evaluate competition of complex formation.
After a 1-hour incubation, the resulting complexes were captured using magnetic streptavidin-coated beads. Competition of complex formation was evaluated using an Origen® Analyzer (IGEN Inc.), which measures an ECL signal proportional to the ruthenium tag captured in the complex.

[3] = biological target: T1, IL-1β; assay: cell-based or functional assay

IL-1 receptor type I (IL-1R1) on SW982 synoviocytes / HUVEC (human), sequence (P14778 18-569): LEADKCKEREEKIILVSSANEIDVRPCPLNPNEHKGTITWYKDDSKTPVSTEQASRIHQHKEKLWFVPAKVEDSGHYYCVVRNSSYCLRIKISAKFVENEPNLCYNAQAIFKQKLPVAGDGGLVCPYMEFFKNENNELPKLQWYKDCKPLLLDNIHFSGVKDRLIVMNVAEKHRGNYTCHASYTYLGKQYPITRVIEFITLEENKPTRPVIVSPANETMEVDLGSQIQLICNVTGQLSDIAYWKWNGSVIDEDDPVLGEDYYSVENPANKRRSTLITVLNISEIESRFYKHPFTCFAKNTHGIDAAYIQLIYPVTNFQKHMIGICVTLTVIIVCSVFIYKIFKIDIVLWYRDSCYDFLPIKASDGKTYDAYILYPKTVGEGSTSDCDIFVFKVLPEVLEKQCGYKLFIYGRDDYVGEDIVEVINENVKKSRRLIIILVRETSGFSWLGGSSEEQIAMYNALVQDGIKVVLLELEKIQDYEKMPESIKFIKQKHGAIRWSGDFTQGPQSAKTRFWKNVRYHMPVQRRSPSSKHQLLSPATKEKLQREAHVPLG

- IC50 (pM), IL-1β-dependent GROα production in HUVEC [1]: 2930 pM
Molecule: IL-1ra (from UniProt P18510 26-177) (ligand)

- IC50 [2]: 0.476 nM
- IC50 (pM), IL-1β-dependent GROα production in HUVEC [3]: 171 pM
B1: MAB201 murine monoclonal anti-IL-1β antibody (R&D Systems) (antibody, V domains shown)
VH: QVTLKESGPGILKPSQTLSLTCSFSGFSLSTSGMGVGWIRQPSGKGLEWLAHIWWDGDESYNPSLKTRLTISKNTSRNQVFLKITTVDTVDTATYFCARNRYDPPWFVDWGQGTLVTVSS
VL: DIQMTQTTSSLSASLGDRVTISCRASQDISNYLSWYQQKPDGTVKLLIYYTSKLHSGVPSRFSGSGSGTDYFLTISNLEQEDIATYFCLQGKMLPWTFGGGTKLEIK
notes: Commercial murine monoclonal; light chain is kappa; also called Mouse; mouse monoclonal MAB201
